According to patent US20030166232A1 (LUDWIG INSTITUTE FOR CANCER RESEARCH, published 2003):

T1: GST-PDZ 2-3 (glutathione S-transferase fused to PTPL1 residues 1340-1579) (Homo sapiens (Human), UniProt Q12923 1359-1598)
T1 construct: not shown: glutathione S-transferase (GST) encoded by the expression vector pGEX1 lambda T (Pharmacia)
T1 sequence: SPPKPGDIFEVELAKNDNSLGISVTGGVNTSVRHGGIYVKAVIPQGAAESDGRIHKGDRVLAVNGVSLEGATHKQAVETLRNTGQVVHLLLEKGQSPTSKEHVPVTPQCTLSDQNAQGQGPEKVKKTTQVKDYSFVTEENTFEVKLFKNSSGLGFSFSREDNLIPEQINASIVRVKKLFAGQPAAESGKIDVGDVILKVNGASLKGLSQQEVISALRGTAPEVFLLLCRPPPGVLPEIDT

T2: GST-PDZ 5 (glutathione S-transferase fused to PTPL1 residues 1856-1960) (Homo sapiens (Human), UniProt Q12923 1875-1979)
T2 construct: not shown: glutathione S-transferase (GST) encoded by the expression vector pGEX1 lambda T (Pharmacia)
T2 sequence: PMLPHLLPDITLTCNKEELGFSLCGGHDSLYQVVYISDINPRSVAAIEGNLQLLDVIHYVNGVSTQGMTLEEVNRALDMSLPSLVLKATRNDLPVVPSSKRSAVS

B1: GST-PDZ 3 (glutathione S-transferase fused to PTPL1 residues 1469-1579) (other)
chain: VKDYSFVTEENTFEVKLFKNSSGLGFSFSREDNLIPEQINASIVRVKKLFAGQPAAESGKIDVGDVILKVNGASLKGLSQQEVISALRGTAPEVFLLLCRPPPGVLPEIDT
notes: not shown: glutathione S-transferase (GST) encoded by the expression vector pGEX1 lambda T (Pharmacia)
B2: PARG (PTPL1 Associated RhoGAP), the 150 kDa component from PC-3 cell lysate (other)
chain: MIAHKQKKTKKKRAWASGQLSTDITTSEMGLKSLSSNSIFDPDYIKELVNDIRKFSHILLYLKEAIFSDCFKEVIHIRLEELLRVLKSIMNKHQNLNSVDLQNAAEMLTAKVKAVNFTEVNEENKNDLFQEVFSSIETLAFTFGNILTNFLMGDVGNDSFLRLPVSRETKSFENVSVESVDSSSEKGNFSPLELDNVLLKNTDSIELALSYAKTWSKYTKNIVSWVEKKLNLELESTRNMVKLAEATRTNIGIQEFMPLQSLFTNALLNDIESSHLLQQTIAALQANKFVQPLLGRKNEMEKQRKEIKELWKQEQNKMLEAENALKKAKLLCMQRQDEYEKAKSSMFRAEEEHLSSSGGLAKNLNKQLEKKRRLEEEALQKVEEADELYKVCVTNVEERRNDVENTKREILAQLRTLVFQCDLTLKAVTVNLFHMQHLQAASLADRLQSLCGSAKLYDPGQEYSEFVKATNSTEEEKVDGNVNKHLNSSQPSGFGPANSLEDVVRLPDSSNKIEEDRCSNSADITGPSFIRSWTFGMFSDSESTGGSSESRSLDSESISPGDFHRKLPRTPSSGTMSSADDLDEREPPSPSETGPNSLGTFKKTLMSKAALTHKFRKLRSPTKCRDCEGIVVFQGVECEECLLVCHRKCLENLVIICGHQKLPGKIHLFGAEFTLVAKKEPDGIPFILKICASEIENRALCLQGIYRVCGNKIKTEKLCLALENGMHLVDISEFSSHDICDVLKLYLRQLPEPFILFRLYKEFIDLAKEIQHVNEEQETKKNSLEDKKWPNMCIEINRILLKSKDLLRQLPASNFNSLHFLIVHLKRVVDHAEENKMNSKNLGVIFGPSLIRPRPQTAPITISSLAEYSNQARLVEFLITYSQKIFDGSLQPQDVMCSIGVVDQGCFPKPLLSPEERDIERSMKSLFFSSKEDIHTSESESKIFERATSFEESERKQNALGKCDACLSDKAQLLLDQEAESASQKIEDGKAPKPLSLKSDRSTNNVERHTPRTKIRPVSLPVDRLLLASPPNERNGRNMGNVNLDKFCKNPAFEGVNRKDAATTVCSKFNGFDQQTLQKIQDKQYEQNSLTAKTTMIMPSALQEKGVTTSLQISGDHSINATQPSKPYAEPVRSVREASERRSSDSYPLAPVRAPRTLQPQHWTTFYKPHAPIISIRGNEEKPASPSAACPPGTDHDPHGLVVKSMPDPDKASACPGQATGQPKEDSEELGLPDVNPMCQRPRLKRMQQFEDLEDEIPQFV
notes: In the pull-down it was the endogenous, 35S-labelled 150 kDa protein in PC-3 cell lysate; also called 150 kDa protein
B3: GST-PDZ 1 (glutathione S-transferase fused to PTPL1 residues 1066-1166) (other)
chain: SSPEREITLVNLKKDAKYGLGFQIIGGEKMGRLDLGIFISSVAPGGPADFHGCLKPGDRLISVNSVSLEGVSHHAAIEILQNAPEDVTLVISQPKEKISKV
notes: as for B1

How the values were obtained:
Test in all cases: GST pull-down from 35S-labelled PC-3 cell lysate, SDS-gel, fluorography
[1] = biological target: B2
Description: (§1) PC-3 cells were obtained from American Type Culture Collection (Rockville, Md.) and cultured as described (Saras et al., 1994). Metabolic labeling of PC-3 cells was performed for 4 h in methionine-and cysteine-free MCDB 104 medium (Gibco/Life Technologies, Gaithersburg, Md.) with […] of ³⁵S-methionine and ³⁵S-cysteine (in vivo labeling mix; Amersham, Arlington Heights, Ill.). After labeling, the cells were solubilized in buffer containing 20 mM Tris-HCI, pH 7.4,150 mM NaCl, 10 mM EDTA, 0.5% Triton X-100, 0.5% deoxycholate, 1 mM dithiothreitol, 1.5% Trasylol (Bayer, Germany) and 1 mM phenylmethylsulfonyl fluoride (Sigma, St. Louis, Mo.). After 15 min on ice, cell debris was removed by centrifugation. Samples (1 ml) were then incubated for 1.5 h at 4° C. with 10 μg of GST-PDZ fusion proteins bound to glutathione-Sepharose 4B beads (Pharmacia). The beads were pelleted and washed four times with solubilization buffer. The protein complexes were eluted by boiling for 5 min in SDS-sample buffer (100 mM Tris-HCI, pH 8.8, 0.01% bromophenol blue, 36% glycerol, 4% SDS, 10 mM dithiothreitol) and analyzed by SDS-gel electrophoresis using 5-12% polyacrylamide gels (Blobel and Dobberstein, J. Cell Biol. 67:835-851, 1975). The gel was fixed, incubated with Amplify (Amersham) for 20 min, dried and subjected to fluorography.

[2] = biological target: T1, GST-PDZ 2-3 (glutathione S-transferase …)
Description: as §1

[3] = biological target: T2, GST-PDZ 5 (glutathione S-transferase …)
Description: as §1

Row | Binder | binding result [1] | binding result [2] | binding result [3]
1 | B1 | no binding (tested: 10 µg of GST-PDZ fusion protein) | – | –
2 | B2 | – | no binding (tested: 10 µg of GST-PDZ fusion protein) | no binding (tested: 10 µg of GST-PDZ fusion protein)
3 | B3 | no binding (tested: 10 µg of GST-PDZ fusion protein) | – | –
